The source of these data is paper PMC2572620, “The Mycoplasma pneumoniae MPN229 gene encodes a protein that selectively binds single-stranded DNA and stimulates Recombinase A-mediated DNA strand exchange” (BMC Microbiology, 2008).

Broadly, the stoichiometry N is the number of molecules, sites or subunits per partner or assembly.

The data set deals with the molecule itself. Description: SEC; Sephadex G-150 column; 500 ul of untagged Mpn SSB at 0.3 mg/ml in 50 mM Tris-HCl pH 7.5, 135 mM NaCl; calibrated with BSA, ovalbumin and cytochrome C; fractions analysed by SDS-PAGE. (Size exclusion chromatography separates by hydrodynamic size, large species first.)

B1: Mpn single-stranded DNA-binding protein (Mpn SSB), natural non-tagged form (natural protein, Mycoplasma pneumoniae, UniProt P75542 1-166, looked up)
chain: MNRVFLFGKLSFDPNKLQTRTNNIGASFSLACIDSSGFNDSKSYIRITAWGKVASFVLTLKPGDSVFVEGRLSTYKMNNRSDDPNSKATYALQVIADKVYRPDEENSLEQPVDKATVIDSPFLAAKTNATENELAQAFPISLDDEDDDINPILNNDSQLEEESDDE
notes: 166 amino acids, 18.4 kDa; ORF amplified from genomic DNA of strain MAC (ATCC 15492) with primers from the initiation codon to the termination codon; expressed in its natural, non-tagged form; Cloned from strain MAC; the genome entry for MPN229 is of strain M129; also called MPN229 protein product; M. pneumoniae SSB; source: E. coli BL21(DE3), pET-11c-MpnSSB, purified (ammonium sulphate …)
Turning to B1, the “stoichiometry N” value turned out to be 4.
